Data set [1] deals with T1, cathepsin K (Cathepsin K Drug Discovery Kit, Enzo Life Sciences) (UniProt P43235 115-329, limits assumed).
T1 construct: also called CTSK; CatK
T1 sequence (looked up): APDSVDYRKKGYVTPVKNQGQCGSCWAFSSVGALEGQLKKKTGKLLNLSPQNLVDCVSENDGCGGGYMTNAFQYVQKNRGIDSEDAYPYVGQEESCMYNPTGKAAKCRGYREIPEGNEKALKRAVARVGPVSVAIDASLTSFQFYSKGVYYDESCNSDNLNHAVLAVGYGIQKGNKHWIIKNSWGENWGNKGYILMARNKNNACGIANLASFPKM
Nature of the data set: inhibition of cathepsin K cleavage of the fluorogenic substrate Z-Phe-Arg-AMC; non-linear regression of initial rates. Here is the method:
The ability of recombinant CST6 (R&D Systems, Minneapolis, MN) to inhibit cathepsin K protease activity was assessed using the Cathepsin K Drug Discovery Kit (Enzo Life Sciences International, Plymouth Meeting, PA). Fluorimetric assays were done in triplicate in 96-well microtitre plates using cathepsin K, the fluorogenic synthetic substrate Z-Phe-Arg-AMC in the presence of the cathepsin K assay buffer. Inhibitory activity of CST6 towards cathepsin K was measured in serum-free conditioned media from the H929 cell line stably infected with pWPI or CST6 lentivirus. Conditioned media equating to 25 μg was added to each well and inhibitory activity was evaluated by measuring the residual enzyme activity. Recombinant CST6 was added to assays at various concentrations and the resultant fluorescence was measured using a SpectraMax M2 microplate reader (Molecular Devices, Sunnyvale, CA) with excitation at 380 nm and emission at 460 nm wavelengths. The initial rates from the CatK progress curves in the presence of predetermined concentrations of recombinant CST6 were subjected to non-linear regression analysis (Morrison and Walsh, 1988) using GraFit® software (Erithacus Software Limited, Surrey, UK) to determine the inhibition constant (Ki).

A further data set deals with T2, N-cadherin, P19022.
T2 chain: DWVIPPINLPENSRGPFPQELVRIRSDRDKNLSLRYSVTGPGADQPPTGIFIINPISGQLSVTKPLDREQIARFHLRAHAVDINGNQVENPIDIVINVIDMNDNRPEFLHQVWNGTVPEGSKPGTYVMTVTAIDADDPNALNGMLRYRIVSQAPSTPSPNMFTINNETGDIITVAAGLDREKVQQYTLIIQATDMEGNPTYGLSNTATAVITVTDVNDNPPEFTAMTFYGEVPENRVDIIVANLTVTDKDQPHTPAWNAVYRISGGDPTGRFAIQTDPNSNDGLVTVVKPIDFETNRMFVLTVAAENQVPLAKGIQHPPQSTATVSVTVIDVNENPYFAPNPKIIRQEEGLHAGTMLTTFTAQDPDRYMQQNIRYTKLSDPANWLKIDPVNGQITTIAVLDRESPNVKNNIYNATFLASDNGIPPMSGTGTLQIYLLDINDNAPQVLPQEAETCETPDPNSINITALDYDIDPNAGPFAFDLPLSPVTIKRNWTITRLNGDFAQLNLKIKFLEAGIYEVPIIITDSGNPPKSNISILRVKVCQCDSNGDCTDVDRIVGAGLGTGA

For data set [2], the target named is T3, recombinant CST6 (R&D Systems, Minneapolis, MN), Q15828.
T3 chain: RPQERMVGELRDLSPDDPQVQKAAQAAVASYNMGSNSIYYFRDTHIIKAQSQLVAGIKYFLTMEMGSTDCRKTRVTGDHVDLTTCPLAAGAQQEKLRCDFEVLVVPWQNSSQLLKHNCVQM

The target in another data set is T4, E-cadherin, P12830.
T4 chain: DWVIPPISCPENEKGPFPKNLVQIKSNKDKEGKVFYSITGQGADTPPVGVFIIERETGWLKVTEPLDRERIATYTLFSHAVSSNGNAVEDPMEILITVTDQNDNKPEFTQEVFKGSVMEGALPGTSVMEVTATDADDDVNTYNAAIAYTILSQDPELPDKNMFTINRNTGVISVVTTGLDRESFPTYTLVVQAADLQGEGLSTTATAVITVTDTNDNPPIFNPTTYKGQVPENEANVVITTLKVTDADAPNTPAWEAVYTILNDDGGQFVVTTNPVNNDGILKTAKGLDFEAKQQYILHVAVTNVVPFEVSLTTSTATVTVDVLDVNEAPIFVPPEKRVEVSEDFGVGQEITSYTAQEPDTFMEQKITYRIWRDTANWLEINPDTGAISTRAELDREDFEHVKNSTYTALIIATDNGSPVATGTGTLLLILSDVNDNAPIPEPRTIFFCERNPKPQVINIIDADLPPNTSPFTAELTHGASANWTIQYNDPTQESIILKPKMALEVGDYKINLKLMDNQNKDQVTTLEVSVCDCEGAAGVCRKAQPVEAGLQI

B1: recombinant CST6 (R&D Systems, Minneapolis, MN) (other, UniProt Q15828 29-149, looked up)
chain: T3 chain
notes: also called recombinant cystatin E/M; cystatin M/E
As for B1, in data set [1], the affinity, expressed as Ki, was 3.84 nM.

B2: cathepsin K (Cathepsin K Drug Discovery Kit, Enzo Life Sciences) (protein)
chain: T1 sequence (looked up)
Consider B2, for which the “cleavage of N-cadherin (in vitro assay)” value with N-cadherin, P19022 was “cathepsin K can cleave E- and N-cadherin using an in vitro assay”. Besides, the “cleavage of E- and N-cadherin by cathepsin K (in vitro assay)” value in data set [2] was “the addition of recombinant Cst6 can inhibit this cleavage”. Besides, in the data set with E-cadherin, P12830, the “cleavage of E-cadherin (in vitro assay)” value is “cathepsin K can cleave E- and N-cadherin using an in vitro assay”.

The values are drawn from patent publication US20230293649A1 (BIOVENTURES, published 2023).
